Laboratory results published in patent publication US20220023385A1 (Stanford University, published 2022).

T1: human FGFR1 beta (IIIc)-Fc (R&D Systems) (human, UniProt P11362-14 22-285, limits assumed)
T1 construct: Bought reagent; also called FGFR1-Fc; soluble FGFR1-Fc; not shown: Fc domain, detected with anti-Human IgG
T1 sequence (looked up): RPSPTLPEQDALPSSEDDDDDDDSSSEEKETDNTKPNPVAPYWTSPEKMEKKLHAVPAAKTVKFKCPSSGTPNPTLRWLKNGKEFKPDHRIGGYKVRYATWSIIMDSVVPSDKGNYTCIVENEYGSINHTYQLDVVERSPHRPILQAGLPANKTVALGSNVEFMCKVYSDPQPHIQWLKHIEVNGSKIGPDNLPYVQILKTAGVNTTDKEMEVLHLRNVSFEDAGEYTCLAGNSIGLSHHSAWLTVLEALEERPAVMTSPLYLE


How the values were obtained:
[1] = target: Met receptor on MDCK cells; test: cell-based or functional assay
[2] = target: T2, Met-Fc fusion protein (R&D Systems) labeled with Alexa 488 (UniProt P08581 25-932, Alexa 488 label); test: flow cytometry, yeast display, after heating to varying temperatures
T2 construct: Bought reagent; also called Met-Fc A488; soluble Met-Fc; not shown: Fc domain

[3] = target: T1, human FGFR1 beta (IIIc)-Fc (R&D Systems); test: flow cytometry on yeast displaying the peptide, stained for c-myc and FGFR1-Fc
Experimental: FIG. 15. Non-binding of peptide artifacts to FGFR1-Fc. Yeast cells expressing RTTTS or HTTS peptides on their cell surface were incubated with 10 nM FGFR1-Fc. Cells were stained with fluorescent antibodies for expression (α-c-myc) and binding (α-FGFR1-Fc).
50,000 induced yeast cells were incubated with various concentrations of FGFR1-Fc in phosphate-buffered saline with 1 g/L BSA (PBSA) at room temperature. Cells were incubated in sufficiently large volumes to avoid ligand depletion and long enough times (typically 3 to 24 hours) to reach equilibrium. During the last 30 minutes of incubation, yeast cells were incubated with 1:2500 dilution of chicken anti-c-Myc (Invitrogen) in PBSA. Yeast were pelleted, washed, then incubated with 1:200 dilution of secondary antibodies on ice for 10 min: anti-Human IgG-FITC (Sigma Aldrich) against FGFR1-Fc and anti-chicken-IgY-PE (Santa Cruz Biotechnology) against anti-c-myc. Yeast were washed, pelleted, and resuspended in PBSA immediately before analysis by flow cytometry using EMD Millipore Guava EasyCyte. Flow cytometry data were analyzed using FlowJo (v7.6.1). Binding curves were plotted and Kd values were obtained using GraphPad Prism 6.

T2 sequence (P08581 25-932 limits assumed): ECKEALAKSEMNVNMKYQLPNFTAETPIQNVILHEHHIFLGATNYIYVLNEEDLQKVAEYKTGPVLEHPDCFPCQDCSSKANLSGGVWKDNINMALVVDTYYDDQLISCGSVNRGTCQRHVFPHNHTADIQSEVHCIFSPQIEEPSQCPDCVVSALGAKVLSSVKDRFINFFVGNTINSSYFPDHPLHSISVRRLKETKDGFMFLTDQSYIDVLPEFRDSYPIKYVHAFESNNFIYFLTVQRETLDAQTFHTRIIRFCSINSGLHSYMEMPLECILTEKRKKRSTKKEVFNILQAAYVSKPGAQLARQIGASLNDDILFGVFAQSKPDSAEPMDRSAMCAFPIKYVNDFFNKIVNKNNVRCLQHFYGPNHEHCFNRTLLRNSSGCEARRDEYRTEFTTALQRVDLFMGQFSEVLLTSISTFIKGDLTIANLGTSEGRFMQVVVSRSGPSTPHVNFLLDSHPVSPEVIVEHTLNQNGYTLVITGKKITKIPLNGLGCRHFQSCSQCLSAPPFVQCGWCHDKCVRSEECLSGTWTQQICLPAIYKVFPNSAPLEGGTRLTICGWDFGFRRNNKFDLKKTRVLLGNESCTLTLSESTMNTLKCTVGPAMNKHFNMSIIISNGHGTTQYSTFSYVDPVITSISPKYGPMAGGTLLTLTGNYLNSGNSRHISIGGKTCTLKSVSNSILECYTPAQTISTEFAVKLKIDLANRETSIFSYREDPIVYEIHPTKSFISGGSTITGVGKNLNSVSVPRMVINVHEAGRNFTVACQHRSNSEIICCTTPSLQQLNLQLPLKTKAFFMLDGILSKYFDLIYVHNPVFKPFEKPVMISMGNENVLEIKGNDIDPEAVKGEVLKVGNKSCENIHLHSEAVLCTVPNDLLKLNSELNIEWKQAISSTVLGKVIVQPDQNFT
Met receptor on MDCK cells, sequence (Q75ZY9 whole entry, the tested form may be a part): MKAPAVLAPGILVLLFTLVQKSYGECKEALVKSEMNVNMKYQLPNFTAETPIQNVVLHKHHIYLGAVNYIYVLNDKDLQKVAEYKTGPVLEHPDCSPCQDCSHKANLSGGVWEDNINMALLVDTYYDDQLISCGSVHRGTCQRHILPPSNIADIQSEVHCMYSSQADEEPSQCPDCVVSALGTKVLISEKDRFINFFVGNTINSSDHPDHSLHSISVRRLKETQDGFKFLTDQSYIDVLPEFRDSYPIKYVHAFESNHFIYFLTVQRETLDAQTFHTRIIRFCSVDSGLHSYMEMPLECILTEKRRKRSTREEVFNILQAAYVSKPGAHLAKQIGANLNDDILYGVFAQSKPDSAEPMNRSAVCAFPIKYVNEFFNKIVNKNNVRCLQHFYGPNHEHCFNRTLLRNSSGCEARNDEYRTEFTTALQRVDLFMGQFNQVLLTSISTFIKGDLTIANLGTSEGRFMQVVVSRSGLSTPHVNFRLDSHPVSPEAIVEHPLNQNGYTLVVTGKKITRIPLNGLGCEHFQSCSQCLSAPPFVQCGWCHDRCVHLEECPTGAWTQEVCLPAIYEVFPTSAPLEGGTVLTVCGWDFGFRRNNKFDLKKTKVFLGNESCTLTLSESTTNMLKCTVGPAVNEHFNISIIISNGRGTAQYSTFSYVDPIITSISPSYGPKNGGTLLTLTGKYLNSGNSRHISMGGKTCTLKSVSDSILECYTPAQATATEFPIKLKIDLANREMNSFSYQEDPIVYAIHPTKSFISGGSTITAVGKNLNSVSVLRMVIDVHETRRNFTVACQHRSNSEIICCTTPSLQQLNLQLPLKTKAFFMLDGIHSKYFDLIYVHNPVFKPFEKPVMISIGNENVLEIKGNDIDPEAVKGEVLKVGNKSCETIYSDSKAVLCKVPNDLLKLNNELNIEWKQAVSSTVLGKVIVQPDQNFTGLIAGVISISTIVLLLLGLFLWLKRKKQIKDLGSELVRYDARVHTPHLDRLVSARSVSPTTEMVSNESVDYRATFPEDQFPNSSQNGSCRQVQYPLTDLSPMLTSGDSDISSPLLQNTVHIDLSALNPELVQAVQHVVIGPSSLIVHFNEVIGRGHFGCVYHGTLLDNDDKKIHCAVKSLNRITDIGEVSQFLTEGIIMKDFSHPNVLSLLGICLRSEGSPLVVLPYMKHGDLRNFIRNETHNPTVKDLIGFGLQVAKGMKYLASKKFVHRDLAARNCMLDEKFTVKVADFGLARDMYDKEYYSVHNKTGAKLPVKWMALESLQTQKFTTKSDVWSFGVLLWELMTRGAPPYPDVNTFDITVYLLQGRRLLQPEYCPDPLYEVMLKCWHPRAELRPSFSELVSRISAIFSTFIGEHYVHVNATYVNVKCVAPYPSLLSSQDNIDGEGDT

Row | binding result [2] | binding result [3] | Binder | other results
1 |  |  | Aras-4 (ligand) YAEGQGKRRNTIHEFKKSAKTTLIKIDPALRIKTEKANTADQCANRCTRSKGLPFTCKAFVFDKARKRCLWFPFNSMSSGVKKEFGHEFDLYENKAYIRDCIIGRGRNYRGTVSITKSGIKCQPWSAMIPHEHSFLPSSYRGEDLRENYCRNPRGEEGGPWCYTSDPEVRYEVCDIPQCSEVE | inhibition of HGF-induced activation of Met, concentration against M2.2 D127A or NK1 N127A [1]: ~5 fold lower concentration
2 | binds |  | NK1 mutant M2.1 displayed on yeast (ligand, Yeast display fusion as for m10) YAEGQRKRRNTIHEFKKSAKTTLIKIDPALKIKTEKVNTADQCANRCTRNKGLPFTCKAFVFDKARKQCLWFPFNSMSSGVKKEFGHEFDLYENKDYIRDCIIGKGRSYRGTVSITKSGIKCQPWSSMIPHEHSFLPSSYRGEDLQENYCRNPRGEEGGPWCFTSDPEVRYEVCDIPQCSEVE | 
3 | binds |  | NK1 mutant M2.2 displayed on yeast (ligand, Yeast display fusion as for m10) YAEGQRKRRNTIHEFKKSAKTTLIKIDPALKIKTEKVNTADQCANRCTRNKGLPFTCKAFVFDKARKRCLWFPFNSMSSGVKKEFGHEFDLYENKDYIRDCIIGNGRSYRGTVSITKSGIKCQPWSSMIPHEHSFLPSSYRGEDLRENYCRNPRGEEGGPWCFTSDPEVRYEVCDIPQCSEVE | 
4 |  | no binding (tested: 10 nM FGFR1-Fc) | HTTS (also called peptide artifact) [HTTS peptide displayed on yeast] | 
5 |  | no binding (tested: 10 nM FGFR1-Fc) | RTTTS (also called peptide artifact) [RTTTS peptide displayed on yeast] | 
